In patent US20250115668A1 (BIOCYTOGEN PHARMACEUTICALS BEIJING, published 2025):
Read-outs that look alike come from different tables or passages of the source. Blank lines part the entries; values can stand above or below the binder they belong to.

Legend:
[1] = molecular target: T1, Human OX40 protein having a His-Tag (human, UniProt P43489 29-216, limits assumed); assay: SPR Biacore 8K, Protein A chip; antibody captured, antigen analyte
T1 construct: Bought recombinant protein; also called hOX40-His; hOX40; not shown: His tag
T1 sequence (looked up): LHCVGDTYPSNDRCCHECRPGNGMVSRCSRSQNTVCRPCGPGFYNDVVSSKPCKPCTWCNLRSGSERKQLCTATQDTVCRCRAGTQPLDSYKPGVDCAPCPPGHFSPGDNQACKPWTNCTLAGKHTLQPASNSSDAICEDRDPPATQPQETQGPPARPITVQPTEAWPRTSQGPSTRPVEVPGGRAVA

[2] = molecular target: T2, human OX40 expressed on transfected cells (human, UniProt P43489 29-277); assay: flow cytometry (MFI, anti-hIgG-Fc-Alexa Fluor 647) on HEK293T-hCTLA4-hOX40 cells co-expressing human CTLA4 and human OX40
T2 construct: whole, on cells; also called hOX40 on HEK293T-hCTLA4-hOX40 cells; on Jurkat-luc-hOX40
T2 sequence (looked up): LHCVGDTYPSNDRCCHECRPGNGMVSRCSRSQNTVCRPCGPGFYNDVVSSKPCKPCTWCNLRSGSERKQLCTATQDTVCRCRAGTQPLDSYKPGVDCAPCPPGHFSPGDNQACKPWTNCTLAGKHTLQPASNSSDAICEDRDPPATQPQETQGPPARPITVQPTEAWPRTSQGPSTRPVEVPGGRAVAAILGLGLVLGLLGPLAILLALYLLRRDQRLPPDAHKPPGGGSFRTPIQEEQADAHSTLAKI

[3] = molecular target: T2, human OX40 expressed on transfected …; assay: as above; remark: listed apart in the source
[4] = molecular target: T1, Human OX40 protein having a His-Tag; assay: SPR Biacore 8K, Protein A chip; antibody captured, antigen analyte; remark: listed apart in the source
[5] = molecular target: T3, Cynomolgus/Rhesus macaque OX40/TNFRSF4/CD134 Protein, His Tag (Cynomolgus/Rhesus macaque); assay: as above
T3 construct: Bought recombinant protein; also called fasOX40-His; monkey OX40

[6] = molecular target: T2, human OX40 expressed on transfected …; assay: flow cytometry (MFI, anti-hIgG-Fc-Alexa Fluor 647) on HEK293T-hCTLA4-hOX40 cells co-expressing human CTLA4 and human OX40; the bispecific can bind both antigens on the same cell, signal not separable by target
[7] = molecular target: T4, human CTLA4 expressed on transfected cells (human, UniProt P16410 36-223); assay: as above
T4 construct: whole, on cells; also called hCTLA4 on HEK293T-hCTLA4-hOX40 cells; on Jurkat-luc-hCTLA4
T4 sequence (looked up): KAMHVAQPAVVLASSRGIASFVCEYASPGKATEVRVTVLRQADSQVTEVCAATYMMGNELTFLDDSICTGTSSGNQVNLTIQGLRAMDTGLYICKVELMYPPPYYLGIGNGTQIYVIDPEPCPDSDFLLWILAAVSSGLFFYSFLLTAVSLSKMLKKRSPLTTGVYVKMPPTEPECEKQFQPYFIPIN

[8] = molecular target: T2, human OX40 expressed on transfected …; assay: as above; remark: listed apart in the source
[9] = molecular target: T4, human CTLA4 expressed on transfected …; assay: as above; remark: listed apart in the source
[10] = molecular target: T5, Human CTLA4 protein having a His-Tag (human, UniProt P16410 37-162, limits assumed); assay: SPR Biacore 8K, Protein A chip; antibody captured, antigen analyte
T5 construct: Bought recombinant protein; also called hCTLA4-His; hCTLA4; not shown: His tag
T5 sequence (looked up): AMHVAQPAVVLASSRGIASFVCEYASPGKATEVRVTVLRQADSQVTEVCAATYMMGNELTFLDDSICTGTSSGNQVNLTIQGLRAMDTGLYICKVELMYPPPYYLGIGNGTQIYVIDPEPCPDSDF

[11] = molecular target: T4, human CTLA4 expressed on transfected …; assay: flow cytometry (MFI, anti-hIgG-Fc-Alexa Fluor 647) on HEK293T-hCTLA4-hOX40 cells co-expressing human CTLA4 and human OX40
[12] = molecular target: T4, human CTLA4 expressed on transfected …; assay: as above; remark: listed apart in the source
[13] = molecular target: T4, human CTLA4 expressed on transfected …; assay: as above; remark: listed apart in the source
[14] = molecular target: T2, human OX40 expressed on transfected …; assay: flow cytometry (MFI, anti-hIgG-Fc-Alexa Fluor 647) on HEK293T-hCTLA4-hOX40 cells co-expressing human CTLA4 and human OX40; the bispecific can bind both antigens on the same cell, signal not separable by target; remark: listed apart in the source
[15] = molecular target: T4, human CTLA4 expressed on transfected …; assay: as above; remark: listed apart in the source

B3: OX-H7-CT-3D2-IgG1-SI (bispecific antibody, V domains shown)
VH 1: QITLKESGPTLVKPAQTLTLTCTFSGFSLSTSGVGVGWIRQPPGKALEWLALIYWDDDKLYSPSLKSRLTITKDTSKNQVVLAMTNMDPVDTATYYCAHSQLGRDDYWGQGTLVTVSS
VH 2: QVQLVESGPGLVKPSETLSLTCTVSGDSIRSSHYYWGWIRQPPGKGLEWIGSIYFNGITYYSPSLKSRVTISVDTSKNQFSLKLTSVTAADTAVFYCARHNNYYDSSGYWYYFDYWGQGTLVTVSS
VL: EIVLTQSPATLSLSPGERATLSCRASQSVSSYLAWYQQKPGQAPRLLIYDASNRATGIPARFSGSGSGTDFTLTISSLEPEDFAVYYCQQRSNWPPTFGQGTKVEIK
notes: SI mutations (S239D, I332E, EU)
- Kd [4]: 182 nM
- koff [4]: 0.00169 s⁻¹
- kon [4]: 9260 M⁻¹ s⁻¹
- Kd [5]: 163 nM
- koff [5]: 0.001 s⁻¹
- kon [5]: 6170 M⁻¹ s⁻¹
- EC50 (read off the curve) [6]: ~1 µg/mL
- EC50 (read off the curve) [7]: ~1 µg/mL

B4: OX-4C8-CT-3D2-IgG1-SI (bispecific antibody, V domains shown)
VH 1: QVQLVESGPTLVKPTQTLTLTCTFSGFSLSTTRVGVGWIRQPPGKALEWLALIYWDDDKRYSPSLKNRLTLTKDTSKNQVVLTMTNMDPVDTATYYCAHFGSGTYYNVDYWGQGTLVTVSSAS
VH 2: B3 VH 2
VL: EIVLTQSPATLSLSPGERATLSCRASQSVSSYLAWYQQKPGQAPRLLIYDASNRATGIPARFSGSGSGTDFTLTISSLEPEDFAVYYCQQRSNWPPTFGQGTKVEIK
notes: 1+1 knobs-into-holes human IgG1 with common light chain; SI mutations (S239D, I332E, EU)
- Kd [4]: 17.6 nM
- koff [4]: 0.00258 s⁻¹
- kon [4]: 147000 M⁻¹ s⁻¹
- Kd [5]: 6.4 nM
- koff [5]: 0.0037 s⁻¹
- kon [5]: 578000 M⁻¹ s⁻¹
- EC50 (read off the curve) [8]: ~2 µg/mL
- EC50 (read off the curve) [9]: ~2 µg/mL

B5: CT-3D2-IgG1 (antibody, V domains shown)
VH: B3 VH 2
VL: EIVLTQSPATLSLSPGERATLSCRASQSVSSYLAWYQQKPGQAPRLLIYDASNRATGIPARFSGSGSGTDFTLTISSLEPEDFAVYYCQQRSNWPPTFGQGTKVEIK
notes: Human anti-CTLA4 antibody from RenLite mice
- Kd [10]: 17.1 nM
- koff [10]: 0.00079 s⁻¹
- kon [10]: 46200 M⁻¹ s⁻¹
- EC50 (read off the curve) [11]: ~2 µg/mL
- EC50 (read off the curve) [12]: ~2 µg/mL
- EC50 (read off the curve) [13]: ~2 µg/mL

Now from value to binder:

- Kd [1]: 65.4 nM
- koff [1]: 0.00738 s⁻¹
- kon [1]: 113000 M⁻¹ s⁻¹
- EC50 (read off the curve) [2]: ~0.3 µg/mL
B1: OX-4C8-IgG1 (antibody, V domains shown)
VH: QVQLVESGPTLVKPTQTLTLTCTFSGFSLSTTRVGVGWIRQPPGKALEWLALIYWDDDKRYSPSLKNRLTLTKDTSKNQVVLTMTNMDPVDTATYYCAHFGSGTYYNVDY
VL: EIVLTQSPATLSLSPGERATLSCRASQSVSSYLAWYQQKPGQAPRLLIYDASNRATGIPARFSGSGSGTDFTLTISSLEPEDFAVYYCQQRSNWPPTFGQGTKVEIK
notes: Human anti-OX40 antibody; IgG1 constant regions

- EC50 (read off the curve) [3]: ~7 µg/mL
- Kd [1]: 8.68 nM
- koff [1]: 0.00441 s⁻¹
- kon [1]: 508000 M⁻¹ s⁻¹
B2: OX-H8-IgG1 (antibody, V domains shown)
VH: QITLKESGPTLVKPTQTLTLTCTFSGFSLSSRGVGVGWIRQPPGKALEWLALIYWDDDKRYSPSLKSRLTITKDTSKNQVVLTMANMDPVDTATYYCAHSHRGYENFWGQGTLVTVSS
VL: EIVLTQSPATLSLSPGERATLSCRASQSINSYLAWYQQNPGQAPRLLIYLASNRATGIPARFSGSGSGTDFTLTITSLEPEDFAVYYCQQRSDWPPTFGQGTKVEIK
notes: Monoclonal anti-OX40 antibody, IgG1 constant regions

- EC50 (read off the curve) [14]: ~1 µg/mL
- EC50 (read off the curve) [15]: ~1 µg/mL
- Kd [4]: 16 nM
- koff [4]: 0.00784 s⁻¹
- kon [4]: 490000 M⁻¹ s⁻¹
- Kd [5]: 18.9 nM
- koff [5]: 0.00966 s⁻¹
- kon [5]: 510000 M⁻¹ s⁻¹
B6: OX-H8-CT-3D2-IgG1-SI (bispecific antibody, V domains shown)
VH 1: B2 VH
VH 2: B3 VH 2
VL: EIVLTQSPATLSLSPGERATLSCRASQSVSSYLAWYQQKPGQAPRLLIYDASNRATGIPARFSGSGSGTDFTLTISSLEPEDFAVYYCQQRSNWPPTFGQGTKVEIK
notes: as for B3
